Test results: paper PMC6078178 (Nature, 2017)

T1: Med8 (S. cerevisiae, UniProt P38304 1-223)
T1 sequence (looked up): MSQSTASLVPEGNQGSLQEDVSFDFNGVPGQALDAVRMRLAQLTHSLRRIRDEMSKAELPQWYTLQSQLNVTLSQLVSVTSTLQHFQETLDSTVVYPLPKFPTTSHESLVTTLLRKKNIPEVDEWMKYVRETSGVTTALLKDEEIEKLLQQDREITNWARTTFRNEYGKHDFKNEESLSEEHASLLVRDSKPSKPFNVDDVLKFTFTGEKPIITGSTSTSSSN

T2: TFIIE (Tfa1 and Tfa2) (S. cerevisiae, UniProt P36100 1-482; P36145 1-328)
T2 sequence (looked up) 1: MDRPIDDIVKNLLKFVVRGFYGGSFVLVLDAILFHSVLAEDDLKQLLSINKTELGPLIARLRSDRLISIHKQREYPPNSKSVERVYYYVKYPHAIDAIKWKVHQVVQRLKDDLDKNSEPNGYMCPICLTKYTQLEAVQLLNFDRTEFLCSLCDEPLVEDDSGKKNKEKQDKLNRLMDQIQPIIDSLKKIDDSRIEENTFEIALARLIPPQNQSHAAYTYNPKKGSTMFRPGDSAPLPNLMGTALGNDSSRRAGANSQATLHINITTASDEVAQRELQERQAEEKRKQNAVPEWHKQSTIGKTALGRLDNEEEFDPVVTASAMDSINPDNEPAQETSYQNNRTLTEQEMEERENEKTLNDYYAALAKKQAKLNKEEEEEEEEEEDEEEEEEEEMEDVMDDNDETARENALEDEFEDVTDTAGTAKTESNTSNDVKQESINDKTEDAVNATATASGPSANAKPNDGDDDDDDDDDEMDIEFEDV
T2 sequence (looked up) 2: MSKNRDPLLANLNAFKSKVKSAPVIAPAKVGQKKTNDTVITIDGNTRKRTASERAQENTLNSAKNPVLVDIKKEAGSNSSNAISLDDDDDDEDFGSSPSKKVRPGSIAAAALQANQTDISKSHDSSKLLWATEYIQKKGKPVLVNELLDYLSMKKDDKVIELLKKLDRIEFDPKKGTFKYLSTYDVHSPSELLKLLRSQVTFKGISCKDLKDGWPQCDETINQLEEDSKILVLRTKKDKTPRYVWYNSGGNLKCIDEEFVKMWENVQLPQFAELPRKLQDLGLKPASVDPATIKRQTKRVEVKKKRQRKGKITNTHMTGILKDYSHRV

T3: Tfb2 (S. cerevisiae, UniProt Q02939 1-513)
T3 sequence (looked up): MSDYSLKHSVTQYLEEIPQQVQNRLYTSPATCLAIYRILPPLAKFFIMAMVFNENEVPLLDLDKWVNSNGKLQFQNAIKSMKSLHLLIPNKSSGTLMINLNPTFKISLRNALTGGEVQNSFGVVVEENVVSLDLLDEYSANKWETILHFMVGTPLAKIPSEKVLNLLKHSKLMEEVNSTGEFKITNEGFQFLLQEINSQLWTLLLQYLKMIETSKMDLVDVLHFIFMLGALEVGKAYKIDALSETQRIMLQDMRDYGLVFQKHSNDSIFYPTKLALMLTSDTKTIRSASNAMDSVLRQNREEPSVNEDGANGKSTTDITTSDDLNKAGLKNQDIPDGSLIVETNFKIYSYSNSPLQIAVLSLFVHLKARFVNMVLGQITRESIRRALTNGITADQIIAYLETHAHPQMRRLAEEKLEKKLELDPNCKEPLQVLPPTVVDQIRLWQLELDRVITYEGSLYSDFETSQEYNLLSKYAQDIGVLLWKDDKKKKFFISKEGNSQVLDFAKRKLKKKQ

T4: Tfb1 (S. cerevisiae, UniProt P32776 1-642)
T4 sequence (looked up): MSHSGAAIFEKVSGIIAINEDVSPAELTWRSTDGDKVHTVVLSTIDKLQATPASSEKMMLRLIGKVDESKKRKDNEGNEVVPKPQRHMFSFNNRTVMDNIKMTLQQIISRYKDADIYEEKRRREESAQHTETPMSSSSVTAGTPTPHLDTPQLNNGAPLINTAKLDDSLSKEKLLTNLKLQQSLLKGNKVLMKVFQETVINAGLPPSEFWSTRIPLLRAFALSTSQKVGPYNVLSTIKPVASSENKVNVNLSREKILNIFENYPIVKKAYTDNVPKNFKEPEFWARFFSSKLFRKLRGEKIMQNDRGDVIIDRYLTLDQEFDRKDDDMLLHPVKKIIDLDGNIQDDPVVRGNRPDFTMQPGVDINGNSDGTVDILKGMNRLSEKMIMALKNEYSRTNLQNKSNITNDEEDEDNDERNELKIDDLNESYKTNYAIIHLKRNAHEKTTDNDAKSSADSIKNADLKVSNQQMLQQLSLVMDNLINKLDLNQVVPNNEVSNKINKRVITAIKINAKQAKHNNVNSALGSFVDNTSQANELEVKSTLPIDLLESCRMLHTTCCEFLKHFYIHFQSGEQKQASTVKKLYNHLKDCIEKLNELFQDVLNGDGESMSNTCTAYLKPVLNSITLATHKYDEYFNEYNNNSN

T5: Ssl2 (S. cerevisiae, UniProt Q00578 1-843)
T5 sequence (looked up): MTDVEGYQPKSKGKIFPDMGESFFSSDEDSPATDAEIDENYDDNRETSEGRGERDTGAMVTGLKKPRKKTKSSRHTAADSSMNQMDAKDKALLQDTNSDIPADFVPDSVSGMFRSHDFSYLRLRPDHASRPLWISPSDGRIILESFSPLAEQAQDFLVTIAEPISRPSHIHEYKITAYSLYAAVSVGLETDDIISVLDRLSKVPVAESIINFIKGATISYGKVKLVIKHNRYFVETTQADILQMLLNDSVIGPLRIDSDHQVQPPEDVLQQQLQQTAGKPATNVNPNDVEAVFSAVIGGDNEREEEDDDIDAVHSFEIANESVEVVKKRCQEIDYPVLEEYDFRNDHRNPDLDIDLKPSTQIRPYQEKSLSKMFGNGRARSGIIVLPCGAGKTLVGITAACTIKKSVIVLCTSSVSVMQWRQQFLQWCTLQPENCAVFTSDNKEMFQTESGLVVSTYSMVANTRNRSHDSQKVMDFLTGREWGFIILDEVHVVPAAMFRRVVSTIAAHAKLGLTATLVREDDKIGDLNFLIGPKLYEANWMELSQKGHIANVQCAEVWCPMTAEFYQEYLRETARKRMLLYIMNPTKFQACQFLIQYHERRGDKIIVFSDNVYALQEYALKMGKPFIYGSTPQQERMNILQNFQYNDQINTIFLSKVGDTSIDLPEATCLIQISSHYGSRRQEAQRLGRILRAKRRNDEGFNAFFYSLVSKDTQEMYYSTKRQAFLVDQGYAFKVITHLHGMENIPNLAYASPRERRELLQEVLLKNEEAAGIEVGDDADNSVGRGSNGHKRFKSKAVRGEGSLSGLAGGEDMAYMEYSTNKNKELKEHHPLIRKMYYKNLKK

B1: Rpb4 (Pol II stalk subunit) (natural protein, S. cerevisiae)
chain: MNVSTSTFQTRRRRLKKVEEEENAATLQLGQEFQLKQINHQGEEEELIALNLSEARLVIKEALVERRRAFKRSQKKHKKKHLKHENANDETTAVEDEDDDLDEDDVNADDDDFMHSETREKELESIDVLLEQTTGGNNKDLKNTMQYLTNFSRFRDQETVGAVIQLLKSTGLHPFEVAQLGSLACDTADEAKTLIPSLNNKISDDELERILKELSNLETLY
B2: Tfb3 (natural protein, S. cerevisiae, UniProt Q03290 1-321, looked up)
chain: MLMDEYEENKDMCPICKTDRYLSPDVKFLVNPECYHRICESCVDRIFSLGPAQCPYKGCDKILRKNKFKTQIFDDVEVEKEVDIRKRVFNVFNKTIDDFNGDLVEYNKYLEEVEDIIYKLDHGIDVAKTEEKLRTYEELNKQLIMNNLERSRTEIESFEQRQKFEKEMKLKKRLLERQIEEEERMNKEWTKKEIVNRLSTTTQDINETIEGVKNTVKLKKSSARRKLEELNRVLKNNPYFNSNVNVQNSRLKDAVPFTPFNGDREAHPRFTLKGSVYNDPFIKDLEHRKEFIASGFNTNYAYERVLTEAFMGLGCVISEEL
B3: Rpb7 (Pol II stalk subunit) (natural protein, S. cerevisiae, UniProt P34087 1-171, looked up)
chain: MFFIKDLSLNITLHPSFFGPRMKQYLKTKLLEEVEGSCTGKFGYILCVLDYDNIDIQRGRILPTDGSAEFNVKYRAVVFKPFKGEVVDGTVVSCSQHGFEVQVGPMKVFVTKHLMPQDLTFNAGSNPPSYQSSEDVITIKSRIRVKIEGCISQVSSIHAIGSIKEDYLGAI
B4: Tfa1 (TFIIE subunit) (natural protein, S. cerevisiae, UniProt P36100 1-482, looked up)
chain: T2 sequence (looked up) 1
B5: Med22 (natural protein, S. cerevisiae, UniProt P32570 1-121, looked up)
chain: MSNQALYEKLEQTRTILSVKLAELINMTTIADRNDDDEGSFAQENSELAVATTSVMMVNNQTMQLIKNVQDLLILTRSIKEKWLLNQIPVTEHSKVTRFDEKQIEELLDNCIETFVAEKTT

Assays:
Med8 = target: T1, Med8; experiment: cryo-EM structure
TFIIE (Tfa1 and Tfa2) = target: T2, TFIIE (Tfa1 and Tfa2); experiment: cryo-EM structure
Tfb3 = target: B2; experiment: cryo-EM structure
Tfb2 = target: T3, Tfb2; experiment: cross-linking
Tfb1 = target: T4, Tfb1; experiment: cryo-EM structure
Ssl2 = target: T5, Ssl2; experiment: cryo-EM structure
[1] = target: B1; experiment: cryo-EM structure

Binder: B1
binding result (Med8): binds

Binder: B2
binding result (TFIIE (Tfa1 and Tfa2)): binds

Binder: B3
binding result (Tfb3): binds

Binder: B4
binding result (Tfb2): binds | binding result (Tfb1): binds | binding result (Ssl2): binds

Binder: B5
binding result [1]: binds
